Results taken from US11275076B2, “Systems and methods for assessing blood platelet function” (Medtronic, Inc., priority 2016, dated 2022).

System: fresh whole blood
Assay: drop distance cycle tests (ferromagnetic washer) assessing clot retraction in blood samples
Assay type: cell-based
Settings: FIG. 4; for clot retraction (object drop distance over time): compared with fresh whole blood without platelet inhibitor, tests began after assumed clot initiation
Text: Referring now to FIG. 3, a schematic drawing of a predicted trace 100 generated by successive drop distance test cycles of an object (e.g., the ferromagnetic object 32 described above) in blood over time that may be representative of data obtainable by an embodiment of a blood analysis system or apparatus of the present disclosure (e.g., the blood analysis system 20 of FIGS. 1 and 2). For example, and with additional reference to FIGS. 1 and 2, each test cycle includes the object 32 caused to move by the electromagnetic 34 toward the top of the chamber 30 and then allowed to drop; the drop distance of the object 32 is determined or sensed (e.g., an absolute drop distance is determined or sensed once the object 32 is at rest within the blood 40, or is determined or sensed at the end of a predetermined test cycle period). This so-determined drop distance serves as a single data point on the trace 100. The same drop distance test cycle is repeated for the same blood sample 40, at regular or irregular time intervals, over the course of an assessment time period with the result of each successive drop distance test cycle providing an additional data point from which the trace 100 is generated. (i.e., the determined “object drop distance” is plotted relative to the Y-axis at the corresponding point in time over the assessment time period along the X-axis).
As a point of reference, FIG. 4 presents the results of the drop distance cycle tests described above (using a ferromagnetic washer as the object) with three different blood samples. The first blood sample (“FWB”) consisted of fresh whole blood. The second blood sample (“FWB+5 ug/mL Reopro”) consisted of the fresh whole blood of the first sample and the platelet inhibitor Reopro at a concentration of 5 μg/mL. […] As explained in U.S. Pat. No. 8,921,115, clot strength can be another indicator of platelet function, and can be assessed (along with platelet retraction) with some systems and methods of the present disclosure. […]

B1: Reopro: the platelet inhibitor Reopro (antibody, chains of the INN, looked up, V domains shown)
VH: EVQLQQSGTVLARPGASVKMSCEASGYTFTNYWMHWVKQRPGQGLEWIGAIYPGNSDTSYIQKFKGKAKLTAVTSTTSVYMELSSLTNEDSAVYYCTLYDGYYVFAYWGQGTLVTVSA
VL: EIVLTQSPVTLSVTPGDSVSLSCRASRDISNNLHWFQQTSHESPRLLIKYASQSMSGIPSRFSGSGSGTDFTLSINSVETEDFGMYFCQQTNSWPYTFGGGTKLEIK
modifications: Fab
object movement profile, dependence on platelet inhibitor concentration (comparison of 5 μg/mL and 10 μg/mL Reopro in fresh whole blood): dose dependent | clot retraction (object drop distance over time) (fresh whole blood + 5 μg/mL Reopro): first blood sample (with normal platelet function) showed greater clot retraction that the second and third blood samples | clot retraction (object drop distance over time) (fresh whole blood + 10 μg/mL Reopro): first blood sample (with normal platelet function) showed greater clot retraction that the second and third blood samples
